Read-outs that look alike come from different tables or passages of the source.
Legend:
recombinant human EpCAM [1] = biological target: T1, recombinant human EpCAM (human, UniProt P16422 24-265); assay: ELISA, plate coated with recombinant human EpCAM, detection with peroxidase anti-human IgG (Fab specific), OD450
T1 construct: Recombinant protein for ELISA coating; also called human EpCAM recombinant protein
T1 sequence (looked up): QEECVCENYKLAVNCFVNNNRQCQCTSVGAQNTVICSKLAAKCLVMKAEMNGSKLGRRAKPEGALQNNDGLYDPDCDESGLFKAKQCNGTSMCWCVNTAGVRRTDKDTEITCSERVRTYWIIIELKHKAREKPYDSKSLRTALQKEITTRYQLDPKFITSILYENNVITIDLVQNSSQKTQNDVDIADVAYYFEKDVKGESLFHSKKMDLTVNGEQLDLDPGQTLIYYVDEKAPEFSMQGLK
Procedure: (§1) A 96-well plate was coated overnight at 4° C. with 1 μg/ml recombinant human CD47 or human EpCAM. After washing 3 times, the plate was blocked with 300 μl 1% BSA in PBST at 37° C. for 1 hour. Serially diluted antibodies were added and incubated at 37° C. for 1 hour. The plate was then washed 4 times with PBST and incubated with 1:5000 diluted peroxidase labeled goat anti-human IgG (Fab specific) secondary antibody (Sigma, Cat #A0293) for 1 hour at 37° C. The plate was washed again 4 times with PBST, incubated with 3,3′,5,5′-tetramethylbenzidine (TMB) substrate for 15 min at room temperature, terminated with 1N HCl, and then read at 450 nm.
(§2) ELISA assay was performed as described in EXAMPLE 3.

recombinant human CD47 [2] = biological target: T2, recombinant human CD47 (human, UniProt Q08722 19-139, limits assumed); assay: ELISA, plate coated with recombinant human CD47, detection with peroxidase anti-human IgG (Fab specific), OD450
T2 construct: Recombinant protein for ELISA coating; also called human CD47 recombinant protein
Procedure: as §1, §2

CD47 on human cells [3] = biological target: T3, CD47 on human cells (human, UniProt Q08722 19-323); assay: flow cytometry, blocking of SIRPα-mIgG2a fusion protein (1 µg/mL) binding to CD47 on HCT-15 cells (EpCAM+++/CD47+), inhibition (%)
T3 construct: whole, on cells; Endogenous CD47 on cells; also called CD47 on Raji cells; CD47 on HCT-15 cells
Procedure: (§3) Tumor cells were harvested, centrifuged, and then resuspended in FACS buffer (PBS plus 2% FBS) at a concentration of 2×10⁶ cells/mL. 100 μL of the cell suspension was dispensed into each well of a 96-well plate. The plate was centrifuged for 5 min and 300×g, and the supernatants were discarded. […] Then, the plates were washed twice with FACS buffer and incubated for 1 hour at 4° C. in the dark with 100 μL of Alexa Fluor 488 donkey anti-Mouse IgG (H+L) secondary antibody (Invitrogen, Cat #A21202, 1:1000). After washing twice with FACS buffer, the plates were resuspended with 300 μL FACS buffer and analyzed by flow cytometry.

CD47 on human cells [4] = biological target: T3, CD47 on human cells; assay: flow cytometry competition with SIRPα-mIgG2a (0.2 µg/mL) on EpCAM-negative Raji cells; EpCAM negative Raji cells; SIRPα-mIgG2a 0.2 µg/mL
Procedure: as §3

recombinant human EpCAM [5] = biological target: T1, recombinant human EpCAM; assay: ELISA, plate coated with recombinant human EpCAM, detection with peroxidase anti-human IgG (Fab specific), OD450; remark: listed apart in the source
Procedure: as §1

CD47 on human cells [6] = biological target: T3, CD47 on human cells; assay: flow cytometry on a mixture of HCT-15 tumor cells and a 20-fold excess of RBCs, signal on the HCT-15 cells (EpCAM+/CD47+, so both arms of the bispecific can take part), % of selective binding
Procedure: (§4) Binding of antibodies on mixed tumor cells and RBCs was performed by FACS. In brief, antibodies were incubated with a mixture of HCT-15 tumor cells and RBCs (in 20-fold excess of tumor) for 1 h at 4° C. The binding of antibodies on HCT-15 cells and RBCs were identified by using different FACS markers and detected by flow cytometry.

CD47 on human cells [7] = biological target: T3, CD47 on human cells; assay: flow cytometry competition with SIRPα-mIgG2a; IC50 on HCT-15 cells against IC50 on Raji cells
Procedure: as §3

CD47 on human cells [8] = biological target: T3, CD47 on human cells; assay: flow cytometry on a mixture of HCT-15 cells and RBCs; EC50 on HCT-15 cells against EC50 on RBCs
Procedure: as §4

CD47 on human cells [9] = biological target: T3, CD47 on human cells; assay: flow cytometry competition with SIRPα-mIgG2a (1 µg/mL) on EpCAM-high HCT-15 cells; EpCAM high HCT-15 cells; SIRPα-mIgG2a 1 µg/mL
Procedure: as §3

recombinant human CD47 [10] = biological target: T2, recombinant human CD47; assay: ELISA, plate coated with recombinant human CD47, detection with peroxidase anti-human IgG (Fab specific), OD450; remark: listed apart in the source
Procedure: as §1

recombinant human CD47 [11] = biological target: T2, recombinant human CD47; assay: as above; remark: listed apart in the source
Procedure: as §1, with “μg/mL” for “μg/ml”, “EGFR.” for “EpCAM.”, “μL” for “μl”

CD47 on human cells [12] = biological target: T3, CD47 on human cells; assay: flow cytometry, blocking of SIRPα-mIgG2a fusion protein (0.2 µg/mL) binding to CD47 on Raji cells (EpCAM-/CD47+), inhibition (%)
Procedure: as §3

B1: CD47×EpCAM_v9 (bispecific antibody, human IgG1, kappa)
heavy: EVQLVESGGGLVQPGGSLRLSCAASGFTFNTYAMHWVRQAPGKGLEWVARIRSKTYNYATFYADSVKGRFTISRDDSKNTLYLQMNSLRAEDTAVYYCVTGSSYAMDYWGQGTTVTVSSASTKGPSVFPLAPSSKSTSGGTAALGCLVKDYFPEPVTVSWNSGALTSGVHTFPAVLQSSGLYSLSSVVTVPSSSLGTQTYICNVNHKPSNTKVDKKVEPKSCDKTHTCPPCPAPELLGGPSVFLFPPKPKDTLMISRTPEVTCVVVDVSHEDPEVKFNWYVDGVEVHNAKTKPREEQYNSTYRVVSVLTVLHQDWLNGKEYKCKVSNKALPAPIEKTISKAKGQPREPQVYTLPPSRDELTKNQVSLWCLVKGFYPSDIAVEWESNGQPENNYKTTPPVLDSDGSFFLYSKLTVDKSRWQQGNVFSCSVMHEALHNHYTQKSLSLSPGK
light: DIQLTQSPSSLSASVGDRVTFTCRASQSIGTSLHWYQQKPGKAPKLLIKYASESISGIPSRFSGSGSGTDFTLTISSVQPEDFATYYCQQSNSWPYTFGQGTKLEIKRTVAAPSVFIFPPSDEQLKSGTASVVCLLNNFYPREAKVQWKVDNALQSGNSQESVTEQDSKDSTYSLSSTLTLSKADYEKHKVYACEVTHQGLSSPVTKSFNRGEC
scFv: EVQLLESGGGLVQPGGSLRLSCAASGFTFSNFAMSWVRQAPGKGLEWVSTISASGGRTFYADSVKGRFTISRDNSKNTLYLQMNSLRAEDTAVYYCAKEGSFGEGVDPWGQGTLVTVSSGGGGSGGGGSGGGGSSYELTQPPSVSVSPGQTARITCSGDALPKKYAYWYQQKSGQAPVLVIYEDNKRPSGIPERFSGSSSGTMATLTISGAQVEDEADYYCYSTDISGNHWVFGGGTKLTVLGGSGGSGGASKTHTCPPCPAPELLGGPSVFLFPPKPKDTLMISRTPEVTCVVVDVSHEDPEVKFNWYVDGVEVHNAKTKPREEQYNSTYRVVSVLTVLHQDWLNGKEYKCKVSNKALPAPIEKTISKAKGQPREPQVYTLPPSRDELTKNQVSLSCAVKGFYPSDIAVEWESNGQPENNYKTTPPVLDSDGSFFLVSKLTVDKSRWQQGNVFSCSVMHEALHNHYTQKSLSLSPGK
notes: Three-chain knob-into-hole bispecific: anti-EpCAM Fab arm and anti-CD47 scFv arm
EC50 (read off the curve) (recombinant human EpCAM [1]): ~0.1 nM | EC50 (read off the curve) (recombinant human CD47 [2]): ~7 nM

B2: CD47×EpCAM_v5 (bispecific antibody, human IgG1, lambda)
heavy: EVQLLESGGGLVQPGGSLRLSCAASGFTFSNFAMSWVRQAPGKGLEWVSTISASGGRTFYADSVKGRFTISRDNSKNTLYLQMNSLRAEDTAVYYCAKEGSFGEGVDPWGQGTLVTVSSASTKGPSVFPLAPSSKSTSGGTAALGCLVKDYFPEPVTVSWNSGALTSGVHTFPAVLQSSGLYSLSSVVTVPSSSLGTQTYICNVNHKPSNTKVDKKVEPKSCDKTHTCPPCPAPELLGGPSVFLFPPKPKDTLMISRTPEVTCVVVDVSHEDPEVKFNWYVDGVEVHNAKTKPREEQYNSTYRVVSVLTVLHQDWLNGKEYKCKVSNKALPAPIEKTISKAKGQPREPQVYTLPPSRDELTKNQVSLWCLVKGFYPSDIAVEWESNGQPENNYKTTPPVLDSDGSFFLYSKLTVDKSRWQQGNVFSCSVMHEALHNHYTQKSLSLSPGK
light: SYELTQPPSVSVSPGQTARITCSGDALPKKYAYWYQQKSGQAPVLVIYEDNKRPSGIPERFSGSSSGTMATLTISGAQVEDEADYYCYSTDISGNHWVFGGGTKLTVLGQPKAAPSVTLFPPSSEELQANKATLVCLISDFYPGAVTVAWKADSSPVKAGVETTTPSKQSNNKYAASSYLSLTPEQWKSHRSYSCQVTHEGSTVEKTVAPTECS
scFv: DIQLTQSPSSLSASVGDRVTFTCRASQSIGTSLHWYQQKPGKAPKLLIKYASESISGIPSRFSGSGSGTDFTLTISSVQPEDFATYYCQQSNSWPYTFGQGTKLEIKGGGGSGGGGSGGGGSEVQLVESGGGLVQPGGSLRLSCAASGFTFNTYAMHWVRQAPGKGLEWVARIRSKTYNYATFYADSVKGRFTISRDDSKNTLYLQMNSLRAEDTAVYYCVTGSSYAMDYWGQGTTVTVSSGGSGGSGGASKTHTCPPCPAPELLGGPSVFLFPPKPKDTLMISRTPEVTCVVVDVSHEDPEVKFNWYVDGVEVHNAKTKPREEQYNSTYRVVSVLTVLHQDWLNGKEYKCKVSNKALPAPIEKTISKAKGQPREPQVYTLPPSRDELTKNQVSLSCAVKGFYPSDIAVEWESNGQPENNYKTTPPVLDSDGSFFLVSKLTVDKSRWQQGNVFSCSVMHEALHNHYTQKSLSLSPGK
notes: Three-chain knob-into-hole bispecific: anti-CD47 Fab arm (VIR47.V8) and anti-EpCAM scFv arm (Mab002-11), human IgG1 backbone; also called anti-CD47×EpCAM bispecific antibody
IC50 (read off the curve) (CD47 on human cells [3]): ~0.3 nM | IC50 (CD47 on human cells [4]): > 100 nM | EC50 (read off the curve) (recombinant human EpCAM [5]): ~0.8 nM | EC50 (read off the curve) (CD47 on human cells [6]): ~0.09 nM | fold difference of IC50 (HCT-15 cells against Raji cells) (CD47 on human cells [7]): ~500 fold | fold difference of binding EC50 (tumor cells against RBCs) (CD47 on human cells [8]): > 200 fold | IC50 (CD47 on human cells [9]): < 1 nM | EC50 (read off the curve) (recombinant human CD47 [10]): ~1 nM

B3: CD47×EpCAM_v10 (bispecific antibody, human IgG1, lambda)
heavy: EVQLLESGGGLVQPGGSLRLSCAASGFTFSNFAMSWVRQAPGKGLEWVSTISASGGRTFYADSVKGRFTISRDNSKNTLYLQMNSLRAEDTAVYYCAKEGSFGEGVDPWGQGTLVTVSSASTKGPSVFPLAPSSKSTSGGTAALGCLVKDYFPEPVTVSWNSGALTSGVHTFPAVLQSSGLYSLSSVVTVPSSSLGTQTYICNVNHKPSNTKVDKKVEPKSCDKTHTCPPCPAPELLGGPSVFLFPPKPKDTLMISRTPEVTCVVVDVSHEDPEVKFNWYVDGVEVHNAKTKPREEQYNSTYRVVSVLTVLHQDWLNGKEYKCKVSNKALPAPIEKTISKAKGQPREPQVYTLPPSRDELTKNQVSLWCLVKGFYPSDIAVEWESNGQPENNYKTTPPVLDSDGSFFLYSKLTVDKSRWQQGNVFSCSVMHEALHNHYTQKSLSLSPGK
light: B2 light
scFv: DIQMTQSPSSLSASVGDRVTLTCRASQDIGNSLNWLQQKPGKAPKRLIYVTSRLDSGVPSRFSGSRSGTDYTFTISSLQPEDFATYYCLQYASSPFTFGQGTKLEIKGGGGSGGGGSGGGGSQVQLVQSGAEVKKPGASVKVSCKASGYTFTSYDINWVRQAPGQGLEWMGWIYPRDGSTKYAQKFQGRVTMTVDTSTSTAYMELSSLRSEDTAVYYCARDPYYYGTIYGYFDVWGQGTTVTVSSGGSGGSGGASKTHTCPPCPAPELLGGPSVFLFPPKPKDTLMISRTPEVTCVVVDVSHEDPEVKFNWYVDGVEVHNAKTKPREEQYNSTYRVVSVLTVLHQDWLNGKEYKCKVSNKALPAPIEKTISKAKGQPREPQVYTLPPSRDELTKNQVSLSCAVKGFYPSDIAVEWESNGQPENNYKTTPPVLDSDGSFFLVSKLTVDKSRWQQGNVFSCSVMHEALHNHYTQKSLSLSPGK
notes: Three-chain knob-into-hole bispecific: anti-CD47 Fab arm and anti-EpCAM scFv arm (Mab001-12)
EC50 (read off the curve) (recombinant human EpCAM [1]): ~9 nM | EC50 (read off the curve) (recombinant human CD47 [2]): ~1 nM

B4: CD47×EpCAM_v11 (bispecific antibody, human IgG1, lambda)
heavy: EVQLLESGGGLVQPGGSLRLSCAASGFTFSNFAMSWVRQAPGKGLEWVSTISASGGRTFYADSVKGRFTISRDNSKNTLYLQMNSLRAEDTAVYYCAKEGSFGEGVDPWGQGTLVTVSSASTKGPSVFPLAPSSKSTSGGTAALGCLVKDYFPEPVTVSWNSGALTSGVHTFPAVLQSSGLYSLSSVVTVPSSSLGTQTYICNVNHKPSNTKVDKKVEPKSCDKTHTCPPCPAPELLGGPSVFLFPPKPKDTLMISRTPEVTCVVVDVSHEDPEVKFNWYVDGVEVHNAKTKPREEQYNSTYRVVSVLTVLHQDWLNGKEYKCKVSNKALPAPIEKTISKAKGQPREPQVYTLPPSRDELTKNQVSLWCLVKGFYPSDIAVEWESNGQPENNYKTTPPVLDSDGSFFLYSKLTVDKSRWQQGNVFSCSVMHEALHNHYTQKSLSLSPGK
light: B2 light
scFv: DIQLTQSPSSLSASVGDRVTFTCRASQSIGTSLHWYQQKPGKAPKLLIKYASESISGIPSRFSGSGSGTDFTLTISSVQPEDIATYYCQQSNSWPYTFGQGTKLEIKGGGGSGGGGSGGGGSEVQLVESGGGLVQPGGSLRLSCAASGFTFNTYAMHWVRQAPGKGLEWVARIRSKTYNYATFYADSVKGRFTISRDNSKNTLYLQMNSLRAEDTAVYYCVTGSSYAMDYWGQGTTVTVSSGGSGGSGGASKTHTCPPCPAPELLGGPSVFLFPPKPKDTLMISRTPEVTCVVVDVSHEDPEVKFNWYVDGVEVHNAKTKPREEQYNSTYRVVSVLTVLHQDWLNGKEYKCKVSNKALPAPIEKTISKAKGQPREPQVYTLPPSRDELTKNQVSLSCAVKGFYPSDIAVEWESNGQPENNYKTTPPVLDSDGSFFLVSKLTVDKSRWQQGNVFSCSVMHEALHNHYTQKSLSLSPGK
notes: Three-chain knob-into-hole bispecific: anti-CD47 Fab arm and anti-EpCAM scFv arm (Mab002-8)
EC50 (read off the curve) (recombinant human EpCAM [1]): ~0.1 nM | EC50 (read off the curve) (recombinant human CD47 [2]): ~0.4 nM

B5: VIR47.V8 (antibody, human IgG1, lambda, V domains shown)
VH: EVQLLESGGGLVQPGGSLRLSCAASGFTFSNFAMSWVRQAPGKGLEWVSTISASGGRTFYADSVKGRFTISRDNSKNTLYLQMNSLRAEDTAVYYCAKEGSFGEGVDPWGQGTLVTVSS
VL: SYELTQPPSVSVSPGQTARITCSGDALPKKYAYWYQQKSGQAPVLVIYEDNKRPSGIPERFSGSSSGTMATLTISGAQVEDEADYYCYSTDISGNHWVFGGGTKLTVLG
notes: Bivalent monospecific parental anti-CD47 antibody; also called parental CD47 antibody VIR47.V8; anti-CD47 bivalent antibody (VIR47.V8)
EC50 (read off the curve) (recombinant human CD47 [11]): ~0.05 nM | IC50 (read off the curve) (CD47 on human cells [12]): ~8 nM
